Reference: patent US20160002326A1 (AbbVie / Abbott, published 2016)

Key:
mouse IL-17 [1] = molecular target: T1, mouse IL-17 (mouse, UniProt Q62386 26-158, limits assumed); test: Biacore SPR, 3 experiments; unit not printed in Table 10
T1 construct: also called mouse IL-17A; rodent IL-17 (mouse)
T1 sequence (looked up): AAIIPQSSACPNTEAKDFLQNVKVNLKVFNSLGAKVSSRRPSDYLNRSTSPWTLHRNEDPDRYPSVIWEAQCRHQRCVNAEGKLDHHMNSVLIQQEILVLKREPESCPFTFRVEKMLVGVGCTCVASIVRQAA

[2] = molecular target: T2, monkey (Rhesus/Cynomolgus) TNF (monkey (Rhesus/Cynomolgus), UniProt P48094 77-233); test: as above
T2 construct: also called monkey TNF; monkey rTNF
T2 sequence (P48094 77-233 limits assumed): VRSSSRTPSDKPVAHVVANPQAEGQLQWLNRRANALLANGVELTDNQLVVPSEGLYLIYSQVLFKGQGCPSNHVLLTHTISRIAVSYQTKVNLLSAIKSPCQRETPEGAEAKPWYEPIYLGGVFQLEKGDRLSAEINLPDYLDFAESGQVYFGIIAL

[3] = molecular target: T3, monkey (Rhesus/Cynomolgus) IL-17 (monkey (Rhesus/Cynomolgus), UniProt F6T3G5 24-155); test: as above
T3 construct: also called monkey IL-17; monkey rIL-17
T3 sequence: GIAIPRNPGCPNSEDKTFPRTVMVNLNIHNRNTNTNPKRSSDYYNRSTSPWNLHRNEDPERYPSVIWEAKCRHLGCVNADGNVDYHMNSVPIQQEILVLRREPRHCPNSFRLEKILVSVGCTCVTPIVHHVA

rat IL-17 [4] = molecular target: T4, rat IL-17 (rat, UniProt Q61453 18-150, limits assumed); test: as above
T4 construct: also called rodent IL-17 (rat)
T4 sequence (looked up): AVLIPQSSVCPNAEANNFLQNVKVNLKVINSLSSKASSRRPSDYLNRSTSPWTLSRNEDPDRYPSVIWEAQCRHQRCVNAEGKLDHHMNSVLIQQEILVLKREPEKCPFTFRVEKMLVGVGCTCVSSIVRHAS

mouse IL-17 [5] = molecular target: T1, mouse IL-17; test: cell-based or functional assay
[6] = molecular target: T2, monkey (Rhesus/Cynomolgus) TNF; test: cell-based or functional assay
[7] = molecular target: T3, monkey (Rhesus/Cynomolgus) IL-17; test: cell-based or functional assay
rat TNF = molecular target: T5, rat TNF (rat, UniProt P16599 80-235); test: cell-based or functional assay
T5 sequence (looked up): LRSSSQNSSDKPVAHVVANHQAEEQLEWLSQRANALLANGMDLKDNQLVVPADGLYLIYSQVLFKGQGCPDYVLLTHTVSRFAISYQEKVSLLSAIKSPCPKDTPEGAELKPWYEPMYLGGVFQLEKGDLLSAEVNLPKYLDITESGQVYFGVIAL

rat IL-17 [8] = molecular target: T4, rat IL-17; test: cell-based or functional assay
human IL-17A/A homodimer [9] = molecular target: T6, human IL-17A/A homodimer (human, UniProt Q16552 24-155); test: cell-based or functional assay
T6 sequence: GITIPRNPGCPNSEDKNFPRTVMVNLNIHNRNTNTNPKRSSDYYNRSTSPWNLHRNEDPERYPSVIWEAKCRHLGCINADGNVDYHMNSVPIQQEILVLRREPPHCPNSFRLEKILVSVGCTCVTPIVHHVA

mouse TNF = molecular target: T7, mouse TNF (mouse, UniProt P06804 80-235); test: cell-based or functional assay
T7 sequence (looked up): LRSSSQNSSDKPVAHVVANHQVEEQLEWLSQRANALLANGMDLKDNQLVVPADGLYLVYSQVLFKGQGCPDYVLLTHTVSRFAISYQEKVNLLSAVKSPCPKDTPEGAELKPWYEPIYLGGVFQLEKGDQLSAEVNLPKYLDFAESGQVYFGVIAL

human TNF-α [10] = molecular target: T8, human TNF-α (human, UniProt P01375 77-233); test: cell-based or functional assay
T8 sequence (P01375 77-233 limits assumed): as the sequence (P48094 77-233 limits assumed) above, with T44R, N72T, L138R counted along it

rabbit TNF = molecular target: T9, rabbit TNF (rabbit, UniProt P04924 80-235, limits assumed); test: cell-based or functional assay
T9 sequence (looked up): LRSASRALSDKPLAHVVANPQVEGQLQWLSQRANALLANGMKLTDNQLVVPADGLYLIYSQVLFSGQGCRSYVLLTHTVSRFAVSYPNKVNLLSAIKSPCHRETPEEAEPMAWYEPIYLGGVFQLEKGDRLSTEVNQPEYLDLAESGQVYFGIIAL

[11] = molecular target: T10, human IL-17A/F heterodimer (human, UniProt Q16552 24-155; Q96PD4 31-163); test: cell-based or functional assay
T10 sequence 1: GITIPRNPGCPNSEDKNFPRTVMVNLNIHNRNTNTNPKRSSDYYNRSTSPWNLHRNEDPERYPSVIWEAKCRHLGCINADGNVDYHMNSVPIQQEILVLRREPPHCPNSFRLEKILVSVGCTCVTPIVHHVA
T10 sequence 2: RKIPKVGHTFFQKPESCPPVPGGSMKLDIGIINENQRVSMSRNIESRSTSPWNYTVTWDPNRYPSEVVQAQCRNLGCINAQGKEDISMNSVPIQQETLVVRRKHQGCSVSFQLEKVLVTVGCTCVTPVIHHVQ

human IL-17A/A homodimer [12] = molecular target: T6, human IL-17A/A homodimer; test: cell-based or functional assay; remark: listed apart in the source
human TNF-α [13] = molecular target: T8, human TNF-α; test: cell-based or functional assay; remark: listed apart in the source

B1: ABBV-257 anti-human TNF and IL-17 DVD-Ig binding protein (bispecific antibody, human IgG1, kappa, L234A L235A)
heavy: EVQLVQSGAEVKKPGASVKVSCKASGYTFANYGIIWVRQAPGQGLEWMGWINTYTGKPTYAQKFQGRVTMTTDTSTSTAYMELSSLRSEDTAVYYCARKLFTTMDVTDNAMDYWGQGTTVTVSSGGGGSGGGGSEVQLVQSGAEVKKPGSSVKVSCKASGYTFTDYEIHWVRQAPGQGLEWMGVNDPESGGTFYNQKFDGRVTLTADESTSTAYMELSSLRSEDTAVYYCTRYSKWDSFDGMDYWGQGTTVTVSSASTKGPSVFPLAPSSKSTSGGTAALGCLVKDYFPEPVTVSWNSGALTSGVHTFPAVLQSSGLYSLSSVVTVPSSSLGTQTYICNVNHKPSNTKVDKKVEPKSCDKTHTCPPCPAPEAAGGPSVFLFPPKPKDQLMISRTPEVTCVVVDVSHEDPEVKFNWYVDGVEVHNAKTKPREEQYNSTYRVVSVLTVLHQDWLNGKEYKCKVSNKALPAPIEKTISKAKGQPREPQVYTLPPSREEMTKNQVSLTCLVKGFYPSDIAVEWESNGQPENNYKTTPPVLDSDGSFFLYSKLTVDKSRWQQGNVFSCSVLHEALHNHYTQKSLSLSPGK
light: DIQMTQSPSSLSASVGDRVTITCRASQDISQYLNWYQQKPGKAPKLLIYYTSRLQSGVPSRFSGSGSGTDFTLTISSLQPEDFATYFCQQGNTWPPTFGQGTKLEIKRGGSGGGGSGDIQMTQSPSSLSASVGDRVTITCRASSGIISYIDWFQQKPGKAPKRLIYATFDLASGVPSRFSGSGSGTDYTLTISSLQPEDFATYYCRQVGSYPETFGQGTKLEIKRTVAAPSVFIFPPSDEQLKSGTASVVCLLNNFYPREAKVQWKVDNALQSGNSQESVTEQDSKDSTYSLSSTLTLSKADYEKHKVYACEVTHQGLSSPVTKSFNRGEC
modifications: N-linked glycans on the heavy chain at the asparagine commonly modified on IgG1 antibodies (fucosylated biantennary oligosaccharides with 0, 1 or 2 galactose residues)
notes: It says the constant region carries L234A, L235A and also T250Q and M428L; also called Anti-IL-17/TNF DVD-Ig Protein
Kd (mouse IL-17 [1]): 0.072 nM
Kd [2]: 0.024 nM
Kd [3]: 0.011 nM
Kd (rat IL-17 [4]): < 0.035 nM
IC50, in vitro neutralization assay (In-Vitro Potency) (mouse IL-17 [5]): 0.239 nM
IC50, in vitro neutralization assay (In-Vitro Potency) [6]: 0.025 nM
IC50, in vitro neutralization assay (In-Vitro Potency) [7]: 0.032 nM
IC50, in vitro neutralization assay (In-Vitro Potency) (rat TNF): > 1000 nM
IC50, in vitro neutralization assay (In-Vitro Potency) (rat IL-17 [8]): 0.135 nM
IC50, in vitro neutralization assay (In-Vitro Potency) (human IL-17A/A homodimer [9]): 0.026 nM
IC50, in vitro neutralization assay (In-Vitro Potency) (mouse TNF): > 1000 nM
IC50, in vitro neutralization assay (In-Vitro Potency) (human TNF-α [10]): 0.025 nM
IC50, in vitro neutralization assay (In-Vitro Potency) (rabbit TNF): > 1000 nM
Mean IC50, inhibition of IL-17 dependent induction of IL-6 in fibroblasts [11]: 0.11 nM
Mean IC50, inhibition of IL-17 dependent induction of IL-6 in fibroblasts (human IL-17A/A homodimer [12]): 0.026 nM
Mean IC50, inhibition of TNF-induced lethality of L929 cells (human TNF-α [13]): 0.025 nM
